{
  "source": "patent US11555055B2",
  "about": "“Peptide inhibitors of insulin-degrading enzyme” (The Regents of the University of California, priority 2017, dated 2023)",
  "molecules": {"B1": {"name": "P12-3 (peptide)", "peptide": "H-QSLPWCYPHCVT-OH", "modifications": "not fully specified; cysteine pairing not given here", "notes": "Two cysteines predicted to form a disulfide bond; not deliberately cyclized before testing"}, "B2": {"name": "P12-3A (QSLPWCYPHCVT-amide), as first synthesized, not deliberately cyclized (peptide)", "peptide": "H-QSLPWCYPHCVT-NH2", "modifications": "not fully specified; printed as QSLPWCYPHCVT-amide; cysteine pairing not given here", "notes": "also called C-terminally amidated variant of P12-3"}},
  "key": {"[1]": {"test_system": "multiple matrix-metalloproteases (MMPs)", "test": "Matrix Metalloproteinase (MMP) Inhibitor Profiling Kit, positive control", "type": "biochemical", "details": "P<0.01", "procedure": "FIG. 8A-B. Selectivity of P12-3A for IDE vis-à-vis other proteases. Activity of P12-3A (100 μM) against (A) multiple matrix-metalloproteases (MMPs) and (B) multiple peptidases of different protease classes. […] Data are mean±SEM, n=8-16 per group. P<0.05 by 2-tailed Student's t-test. […] See Experimental Procedures for details. NEP, neprilysin; mCatD, murine cathepsin D; hCatD, human cathepsin D.\nDegradation Assays—IDE activity was quantified by monitoring the degradation of (7-methoxycoumarin-4-yl)acetic acid-[…](2,4-dinitrophenyl) (FRET1, 5 μM) (49,55), fluoresceinated and biotinylated amyloid β-protein (FAβB; 500 nM) or recombinant human insulin (50 nM) in PBS supplemented with 0.05% BSA. FRET1 degradation was measured by changes in fluorescence (λex=340 nm, λem=420 nm); FAβB degradation was monitored by fluorescence polarization (λex=488 nm, λem=525 nm), as described (56); and insulin degradation was quantified by ELISA. In vitro activity assays incorporated recombinant human IDE (1 nM) purified from bacteria (35). For quantitation of insulin degradation in primary murine skin fibroblasts, cells (1×10^5/well) were plated in 96-well plates and maintained in DMEM supplemented with 10% fetal bovine serum (FBS), 2 mM glutamine, penicillin and streptomycin. […]"}, "[2]": {"biological_target": "T1, recombinant human insulin-degrading enzyme (IDE) (human, UniProt P14735 42-1019, limits assumed)", "T1 construct": "Used at 1 nM in the in vitro activity assays; immobilised on plates for phage panning", "T1 sequence (looked up)": "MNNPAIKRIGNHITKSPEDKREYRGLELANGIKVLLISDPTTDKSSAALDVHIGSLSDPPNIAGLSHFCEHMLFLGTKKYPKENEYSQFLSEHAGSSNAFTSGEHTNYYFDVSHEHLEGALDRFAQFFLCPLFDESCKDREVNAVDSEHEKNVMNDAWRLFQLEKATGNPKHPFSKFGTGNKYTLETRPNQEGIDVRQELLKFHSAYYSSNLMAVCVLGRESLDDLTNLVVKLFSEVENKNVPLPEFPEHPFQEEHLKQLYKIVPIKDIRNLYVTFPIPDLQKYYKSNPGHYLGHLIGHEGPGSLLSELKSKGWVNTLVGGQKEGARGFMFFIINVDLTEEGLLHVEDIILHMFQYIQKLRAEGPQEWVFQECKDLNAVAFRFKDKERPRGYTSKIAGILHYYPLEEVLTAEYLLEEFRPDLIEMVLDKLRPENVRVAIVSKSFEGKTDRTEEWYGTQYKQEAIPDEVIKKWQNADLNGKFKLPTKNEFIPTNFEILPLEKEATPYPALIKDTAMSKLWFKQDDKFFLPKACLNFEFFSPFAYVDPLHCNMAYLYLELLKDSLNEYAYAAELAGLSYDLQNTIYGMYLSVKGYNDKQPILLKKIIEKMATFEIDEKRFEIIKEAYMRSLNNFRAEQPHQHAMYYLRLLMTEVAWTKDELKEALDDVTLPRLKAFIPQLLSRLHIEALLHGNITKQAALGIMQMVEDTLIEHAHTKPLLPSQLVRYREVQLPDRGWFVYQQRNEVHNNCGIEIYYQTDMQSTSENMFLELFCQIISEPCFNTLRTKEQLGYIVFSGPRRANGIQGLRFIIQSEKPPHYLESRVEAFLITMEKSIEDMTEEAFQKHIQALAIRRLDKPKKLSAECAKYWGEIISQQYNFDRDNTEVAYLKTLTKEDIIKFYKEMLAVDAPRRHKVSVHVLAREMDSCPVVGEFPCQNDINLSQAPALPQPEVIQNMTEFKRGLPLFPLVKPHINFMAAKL", "test": "IDE activity assay, FRET1 substrate; IC50 converted to Ki (Cheng-Prusoff)"}, "[3]": {"biological_target": "T1, recombinant human insulin-degrading …", "test": "IDE activity assay, insulin substrate (ELISA); IC50 converted to Ki (Cheng-Prusoff)"}, "[4]": {"biological_target": "T1, recombinant human insulin-degrading …", "test": "FRET1 activity assay after 0 or 4 h pre-incubation of the peptide with IDE"}, "[5]": {"biological_target": "T1, recombinant human insulin-degrading …", "test": "IDE activity assay, FRET1 degradation"}, "[6]": {"biological_target": "T1, recombinant human insulin-degrading …", "test": "IDE activity assay, FAβB degradation (fluorescence polarization)"}},
  "note": "Bridges are numbered along the chain shown (N, C = ends). Where no end group is shown, it is not given here.",
  "data": [
    {"molecule": "COc1ccc(S(=O)(=O)N(CC(=O)NO)CC(C)C)cc1", "note": "[NNGH]", "values": [
      {"measurement": "inhibition of MMPs by positive control", "setting": "[1]", "value": "significant inhibition"}
    ]},
    {"molecule": "B1", "values": [
      {"measurement": "Ki", "setting": "[2]", "value": 8.9, "unit": "µM"},
      {"measurement": "Ki", "setting": "[3]", "value": 3.9, "unit": "µM"}
    ]},
    {"molecule": "B2", "values": [
      {"measurement": "fold increase in potency at the 4-h time point relative to t=0", "setting": "[4]", "value": 1, "unit": "fold"}
    ]},
    {"molecule": "QSLPWCYPHCVT-NH2 (disulfide 6-10 (inferred), also called cyclized P12-3A)", "note": "[P12-3A, deliberately cyclized, highly pure cosmetic-grade version]", "values": [
      {"measurement": "Ki", "setting": "[5]", "value": 2.7, "unit": "µM"},
      {"measurement": "Ki", "setting": "[6]", "value": 2.1, "unit": "µM"}
    ]}
  ]
}
